The Kd is the free concentration of one partner at which half of the binding sites on the other are occupied at equilibrium, for simple one-to-one binding. Read a low Kd as higher affinity.

Consider 30 molecules from US20240141072A1 (published 2024).

Sequences and labels used below:
T1: biotinylated human DLL3 protein expressed as a human IgG1 fusion protein (human, UniProt Q9NYJ7 27-492, limits assumed, biotinylated)
T1 sequence: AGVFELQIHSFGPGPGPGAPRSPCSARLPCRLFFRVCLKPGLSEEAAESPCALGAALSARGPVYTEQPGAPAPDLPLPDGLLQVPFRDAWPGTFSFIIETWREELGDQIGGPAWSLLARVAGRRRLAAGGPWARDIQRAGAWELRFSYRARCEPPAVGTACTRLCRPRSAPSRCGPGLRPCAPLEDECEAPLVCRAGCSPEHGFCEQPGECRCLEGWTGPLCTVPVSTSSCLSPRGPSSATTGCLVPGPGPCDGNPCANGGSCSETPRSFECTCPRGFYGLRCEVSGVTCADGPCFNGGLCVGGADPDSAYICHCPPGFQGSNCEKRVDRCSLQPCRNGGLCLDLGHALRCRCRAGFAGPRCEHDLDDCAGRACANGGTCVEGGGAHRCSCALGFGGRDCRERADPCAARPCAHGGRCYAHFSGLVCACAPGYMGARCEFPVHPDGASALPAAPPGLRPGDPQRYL

B1: 1C07 anti-DLL3 trispecific protein (other)
chain: EVQLVESGGGLVQPGGSLTLSCVASGSTSSINAMAWYRRAPGKQRELVAGISSDGSKVYADSVKGRFTISRDNAKNSVYLQMNSLRAEDTAVYYCYYFRTVSGSSMRYWGQGTLVTVSS
notes: not shown: linker 1808, anti-albumin sdAb, linker 1808, anti-CD3 fragment, His6 1819
B2: 1A09 anti-DLL3 trispecific protein (other)
chain: EVQLVESGGGLVQPGGSLTLSCVASGSTSSINAMAWYRRAPGKQRELVAGISSDGSKLYADSVKGRFTISRDNAKNSVYLQMNSLRAEDTAVYYCYYFRTVQGSSMRYWGQGTLVTVSS
notes: as for B1
B3: 1B010 anti-DLL3 trispecific protein (other)
chain: EVQLVESGGGLVQPGGSLTLSCVASGSTSRINAMGWYRRAPGKQRELVAGISSDGSKVYADSVKGRFTISRDNAKNSVYLQMNSLRAEDTAVYYCYYFRTKSGSSMRYWGQGTLVTVSS
notes: as for B1
B4: 1B08 anti-DLL3 trispecific protein (other)
chain: EVQLVESGGGLVQPGGSLTLSCVASGTTSSINAMGWYRRAPGKQRELVAGISSDGSKVYVDSVKGRFTISRDNAKNSVYLQMNSLRAEDTAVYYCYYFRFVSGSSMRYWGQGTLVTVSS
notes: as for B1
B5: 1B07 anti-DLL3 trispecific protein (other)
chain: EVQLVESGGGLVQPGGSLTLSCVASGSGSSINAMGWYRRAPGKQRELVAGISSDGSKVYSDSVKGRFTISRDNAKNSVYLQMNSLRAEDTAVYYCYYFRHVSGSSMRYWGQGTLVTVSS
notes: as for B1
B6: 1C05 anti-DLL3 trispecific protein (other)
chain: EVQLVESGGGLVQPGGSLTLSCVASGSTSSINAMAWYRRAPGKQRELVAGISSDGSKVYADSVKGRFTISRDNAKNSVYLQMNSLRAEDTAVYYCYYFRTVSGSHMRYWGQGTLVTVSS
notes: as for B1
B7: 1A07 anti-DLL3 trispecific protein (other)
chain: EVQLVESGGGLVQPGGSLTLSCVASGSISSINAMGWYRRAPGKQRELVAGISSDGSKVYADSVKGRFTISRDNAKNSVYLQMNSLRAEDTAVYYCYYFRMVSGSSMRYWGQGTLVTVSS
notes: as for B1
B8: 1C04 anti-DLL3 trispecific protein (other)
chain: EVQLVESGGGLVQPGGSLTLSCVASGNTSSINAMAWYRRAPGKQRELVAGISSDGSKVYADSVKGRFTISRDNAKNSVYLQMNSLRAEDTAVYYCYYFRTVSGSSMRYWGQGTLVTVSS
notes: as for B1
B9: 1B04 anti-DLL3 trispecific protein (other)
chain: EVQLVESGGGLVQPGGSLTLSCVASGTTSSINAMGWYRRAPGKQRELVAGISSDGSLVYADSVKGRFTISRDNAKNSVYLQMNSLRAEDTAVYYCYYFRIVRGSSMRYWGQGTLVTVSS
notes: as for B1
B10: 1C011 anti-DLL3 trispecific protein (other)
chain: EVQLVESGGGLVQPGGSLTLSCVASGTTSSINAMGWYRRAPGKQRELVAGISSDGSKVYEDSVKGRFTISRDNAKNSVYLQMNSLRAEDTAVYYCYYFRTVSGSSMRYWGQGTLVTVSS
notes: as for B1
B11: 1A01 anti-DLL3 trispecific protein (other)
chain: EVQLVESGGGLVQPGGSLTLSCVASGFTSSINAMGWYRRAPGKQRELVAGISSDGSFVYADSVKGRFTISRDNAKNSVYLQMNSLRAEDTAVYYCYYFRHVSGSSMRYWGQGTLVTVSS
notes: as for B1
B12: 1B09 anti-DLL3 trispecific protein (other)
chain: EVQLVESGGGLVQPGGSLTLSCVASGSTSSINAMAWYRRAPGKQRELVAGISSDGSKVYVDSVKGRFTISRDNAKNSVYLQMNSLRAEDTAVYYCYYFRTVSGSSMRYWGQGTLVTVSS
notes: as for B1
B13: 1B011 anti-DLL3 trispecific protein (other)
chain: EVQLVESGGGLVQPGGSLTLSCVASGSTSRINAMGWYRRAPGKQRELVAGISSDGSKVYADSVKGRFTISRDNAKNSVYLQMNSLRAEDTAVYYCYYFRTVYGSSMRYWGQGTLVTVSS
notes: as for B1
B14: 1A012 anti-DLL3 trispecific protein (other)
chain: EVQLVESGGGLVQPGGSLTLSCVASGSTSSINAMAWYRRAPGKQRELVAGISSDGSKVYSDSVKGRFTISRDNAKNSVYLQMNSLRAEDTAVYYCYYFRTVLGSSMRYWGQGTLVTVSS
notes: as for B1
B15: 1B01 anti-DLL3 trispecific protein (other)
chain: EVQLVESGGGLVQPGGSLTLSCVASGSTSIINAMGWYRRAPGKQRELAAGISSDGSKVIADSVKGRFTISRDNAKNSVYLQMNSLRAEDTAVYYCYYFRRVSGSSMRYWGQGTLVTVSS
notes: as for B1
B16: 1A03 anti-DLL3 trispecific protein (other)
chain: EVQLVESGGGLVQPGGSLTLSCVASGSTSSINAMAWYRRAPGKQRELVAGISSDGSKVYADSVKGRFTISRDNAKNSVYLQMNSLRAEDTAVYYCYYFRTVSGSSSRYWGQGTLVTVSS
notes: as for B1
B17: 1A04 anti-DLL3 trispecific protein (other)
chain: EVQLVESGGGLVQPGGSLTLSCVASGSTSSINAMGWYRRAPGKQRELVAGISSDGSKVYEDSVKGRFTISRDNAKNSVYLQMNSLRAEDTAVYYCYYFRTVSGSSMRYWGQGTLVTVSS
notes: as for B1
B18: 1A05 anti-DLL3 trispecific protein (other)
chain: EVQLVESGGGLVQPGGSLTLSCVASGSPSSINAMGWYRRAPGKQRELSAGISSDGSKVYADSVKGRFTISRDNAKNSVYLQMNSLRAEDTAVYYCYYFRTVRGSSMSYWGQGTLVTVSS
notes: as for B1
B19: 1C08 anti-DLL3 trispecific protein (other)
chain: EVQLVESGGGLVQPGGSLTLSCVASGSTSRINAMGWYRRAPGKQRELPAGISSDGSKVYAVSVKGRFTISRDNAKNSVYLQMNSLRAEDTAVYYCYYFRTVSGSPMRYWGQGTLVTVSS
notes: as for B1
B20: 1B02 anti-DLL3 trispecific protein (other)
chain: EVQLVESGGGLVQPGGSLTLSCVASGSTSSINAMGWYRRAPGKQRELVAGISSDGSKIYADSVKGRFTISRDNAKNSVYLQMNSLRAEDTAVYYCYYFRTVSGSSMRYWGQGTLVTVSS
notes: as for B1
B21: 1A010 anti-DLL3 trispecific protein (other)
chain: EVQLVESGGGLVQPGGSLTLSCVASGSTSSINAYGWYRRAPGKQRELVAGISSDGSKVYADSVKGRFTISRDNAKNSVYLQMNSLRAEDTAVYYCYYFRTVYGSSMRYWGQGTLVTVSS
notes: as for B1
B22: 1A06 anti-DLL3 trispecific protein (other)
chain: EVQLVESGGGLVQPGGSLTLSCVASGSTSSINAMGWYRRAPGKQRELAAGISSDGSSVYADSVKGRFTISRDNAKNSVYLQMNSLRAEDTAVYYCYYFRTVSGSSKRYWGQGTLVTVSS
notes: as for B1
B23: 1C01 anti-DLL3 trispecific protein (other)
chain: EVQLVESGGGLVQPGGSLTLSCVASGSTSSINAMGWYRRAPGKQRELVAGISSDGSKVYRDSVKGRFTISRDNAKNSVYLQMNSLRAEDTAVYYCYYFRTVSGSSMGYWGQGTLVTVSS
notes: as for B1
B24: 1D01 anti-DLL3 trispecific protein (other)
chain: EVQLVESGGGLVQPGGSLTLSCVASGSTSDINAMGWYRRAPGKQRELVAGISSDKSKVYADSVKGRFTISRDNAKNSVYLQMNSLRAEDTAVYYCYYFRTVRGSSMRYWGQGTLVTVSS
notes: as for B1
B25: 1B05 anti-DLL3 trispecific protein (other)
chain: EVQLVESGGGLVQPGGSLTLSCVASGSTSSINAMAWYRRAPGKQRELVAGISSDGSKVYADSVKGRFTISRDNAKNSVYLQMNSLRAEDTAVYYCYYYRTVSGSSMRYWGQGTLVTVSS
notes: as for B1
B26: 1C010 anti-DLL3 trispecific protein (other)
chain: EVQLVESGGGLVQPGGSLTLSCVASGSTSRINAMGWYRRAPGKQRELVAGVSSDGSKVYADSVKGRFTISRDNAKNSVYLQMNSLRAEDTAVYYCYYFRTVSGSSMSYWGQGTLVTVSS
notes: as for B1
B27: 1C012 anti-DLL3 trispecific protein (other)
chain: EVQLVESGGGLVQPGGSLTLSCVASGITSSINAMGWYRRAPGKQRELVAGISSDGSKVYAGSVKGRFTISRDNAKNSVYLQMNSLRAEDTAVYYCYYFRTVRGSSMRYWGQGTLVTVSS
notes: as for B1
B28: 1B03 anti-DLL3 trispecific protein (other)
chain: EVQLVESGGGLVQPGGSLTLSCVASGKTSSINAMAWYRRAPGKQRELVAGISSDGSKVYTDSVKGRFTISRDNAKNSVYLQMNSLRAEDTAVYYCYYFRTVSGSSARYWGQGTLVTVSS
notes: as for B1
B29: 1C06 anti-DLL3 trispecific protein (other)
chain: EVQLVESGGGLVQPGGSLTLSCVASGSTSIINAMGWYRRAPGKQRELVAGISSDGSKVYEDSVKGRFTISRDNAKNSVYLQMNSLRAEDTAVYYCYYFRAVSGSSMRYWGQGTLVTVSS
notes: as for B1
B30: 1C02 anti-DLL3 trispecific protein (other)
chain: EVQLVESGGGLVQPGGSLTLSCVASGSTSSINAMAWYRRAPGKQRELVAGISSDGSKVYSDSVKGRFTISRDNAKNSVYLQMNSLRAEDTAVYYCYYFRTVSGSSMRSWGQGTLVTVSS
notes: as for B1

The assay concerns the target T1, biotinylated human DLL3 protein …. Briefly: Octet BLI, single 50 nM. On the procedure:
Using the conditioned medium with known concentrations of the anti-DLL3 trispecific proteins, the binding affinities of the anti-DLL3 trispecific proteins toward human DLL3 protein were measured using a method where biotinylated version of human DLL3 protein were expressed as a human IgG1 fusion protein, and the binding affinity measurement was carried out in an Octet instrument with streptavidin tips.
For orientation: Biolayer interferometry detects binding as a change in optical thickness at a sensor tip.
With B1, the affinity, expressed as Kd, was 7.1 nM. This counts as single-digit nanomolar.

In the case of B2, the Kd is 6.6 nM.

B3 came in with a Kd of 6.8 nM.

B4: the Kd worked out at 12 nM.

In turn, B5 returned a Kd of 8.9 nM.

Regarding B6, binding was put at a Kd of 5.3 nM.

As to B7, the affinity, expressed as Kd, was 8.6 nM. This Kd lies about 1.6-fold higher than the previous one.

The molecule B8 gave an equilibrium dissociation constant (Kd) of 8.1 nM. The Kd values of the last two molecules are within 1.5-fold of each other.

The molecule B9 registered a Kd of 11 nM.

Consider B10, for which the Kd turned out to be 7.6 nM. The Kd values of the last two molecules are within 1.5-fold of each other.

The molecule B11 registered a Kd of 7 nM.

Regarding B12, the Kd was 5.4 nM.

Turning to B13, binding was put at a Kd of 5.7 nM.

B14 returned a Kd of 4.9 nM.

Take B15: the Kd was 5.2 nM.

Molecule B16 yielded a Kd of 6.3 nM.

With B17, the Kd stood at 7.8 nM.

As to B18, the Kd worked out at 4 nM.

In the case of B19, the Kd turned out to be 25 nM.

Turning to B20, the Kd was found to be 11 nM.

Regarding B21, binding was put at a Kd of 6.5 nM.

Turning to B22, the Kd worked out at 5.6 nM.

B23 yielded a Kd of 4.3 nM. This Kd and that of the molecule before are within 1.5-fold of each other.

Molecule B24 returned a Kd of 5.8 nM.

The molecule B25 yielded a Kd of 8 nM. The Kd values of the last two molecules are within 1.5-fold of each other.

B26 yielded a Kd of 2.5 nM.

B27 registered a Kd of 8.5 nM.

Regarding B28, the affinity, expressed as Kd, was 8.7 nM.

The molecule B29 registered a Kd of 8.3 nM.

The molecule B30 returned an equilibrium dissociation constant (Kd) of 6.2 nM.
